# In patent US20260144882A1 (BIO THERA SOLUTIONS, published 2026):
# T1: human Nectin-4 extracellular antigen hNectin-4-His (human, UniProt Q96NY8 32-349)
# T1 construct: C-terminal 8xHis tag included
# T1 sequence: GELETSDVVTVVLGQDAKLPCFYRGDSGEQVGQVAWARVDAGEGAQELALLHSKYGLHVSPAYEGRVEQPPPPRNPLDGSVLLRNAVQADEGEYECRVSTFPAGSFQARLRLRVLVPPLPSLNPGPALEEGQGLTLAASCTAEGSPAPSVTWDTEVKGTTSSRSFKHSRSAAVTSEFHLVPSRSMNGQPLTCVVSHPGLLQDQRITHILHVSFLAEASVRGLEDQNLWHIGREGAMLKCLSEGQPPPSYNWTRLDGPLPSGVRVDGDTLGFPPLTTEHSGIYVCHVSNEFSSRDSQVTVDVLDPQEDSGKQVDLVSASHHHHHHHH
# Biological target: T1, human Nectin-4 extracellular antigen …
# Experiment: ELISA, phage scFv supernatant 1:50
row,Binder,OD value [OD]
1,"1G8-2H4 scFv (scFv, V domains shown, phage clone supernatant) VH: EVQLVESGGGLVQPGGSLRLSCAASGDSFTGYAMSWVRQAPGKGLEWVSAISGSGGSTYYADSVKGRFTISRDNSKNTLYLQMNSLRAEDTAVYYCARQTEDRSYGYDLDYWGQGTLVTVSS VL: DIQMTQSPSSLSASVGDRVTITCRASQGISSYLAWYQQKPGKAPKLLIYAASSLQSGVPSRFSGSGSGTDFTLTISSLQPEDFATYYCQQHYTTPPTFGQGTKVEIKR",1.58
2,"10F4-2A9 scFv (scFv, V domains shown, phage clone supernatant) VH: EVQLVESGGGLVQPGGSLRLSCAASGYTFTDYDMSWVRQAPGKGLEWVSGIKQYKGYTSYADSVKGRFTISRDNSKNTLYLQMNSLRAEDTAVYYCAREYSDVVDYVSVRTPLDYWGQGTLVTVSS VL: DIQMTQSPSSLSASVGDRVTITCRASQGISSYLAWYQQKPGKAPKLLIYAASSLQSGVPSRFSGSGSGTDFTLTISSLQPEDFATYYCQQHYTTPPTFGQGTKVEIKR",1.57
3,"1G8-1F5 scFv (scFv, V domains shown, phage clone supernatant) VH: EVQLVESGGGLVQPGGSLRLSCAASGDIFDTYMSWVRQAPGKGLEWVSRIYTDGSSDYADSVKGRFTISRDNSKNTLYLQMNSLRAEDTAVYYCARQTEDRSYGYDLDYWGQGTLVTVSS VL: DIQMTQSPSSLSASVGDRVTITCRASQGISSYLAWYQQKPGKAPKLLIYAASSLQSGVPSRFSGSGSGTDFTLTISSLQPEDFATYYCQQHYTTPPTFGQGTKVEIKR",1.56
4,"1G8-2B12 scFv (scFv, V domains shown, phage clone supernatant) VH: EVQLVESGGGLVQPGGSLRLSCAASGDTFGTSSMSWVRQAPGKGLEWVSRIDTWGWYKFYADSVKGRFTISRDNSKNTLYLQMNSLRAEDTAVYYCARQTEDRSYGYDLDYWGQGTLVTVSS VL: DIQMTQSPSSLSASVGDRVTITCRASQGISSYLAWYQQKPGKAPKLLIYAASSLQSGVPSRFSGSGSGTDFTLTISSLQPEDFATYYCQQHYTTPPTFGQGTKVEIKR",1.39
5,"1G8-2G12 scFv (scFv, V domains shown, phage clone supernatant) VH: EVQLVESGGGLVQPGGSLRLSCAASGFTFSNNAMSWVRQAPGKGLEWVSAIYASTDGRSYADSVKGRFTISRDNSKNTLYLQMNSLRAEDTAVYYCARQTEDRSYGYDLDYWGQGTLVTVSS VL: DIQMTQSPSSLSASVGDRVTITCRASQGISSYLAWYQQKPGKAPKLLIYAASSLQSGVPSRFSGSGSGTDFTLTISSLQPEDFATYYCQQHYTTPPTFGQGTKVEIKR",1.5
6,"10F4-1D11 scFv (scFv, V domains shown, phage clone supernatant) VH: EVQLVESGGGLVQPGGSLRLSCAASGFIFSDFDMSWVRQAPGKGLEWVSGIKQSSAGINYADSVKGRFTISRDNSKNTLYLQMNSLRAEDTAVYYCAREYSDVVDYVSVRTPLDYWGQGTLVTVSS VL: DIQMTQSPSSLSASVGDRVTITCRASQGISSYLAWYQQKPGKAPKLLIYAASSLQSGVPSRFSGSGSGTDFTLTISSLQPEDFATYYCQQHYTTPPTFGQGTKVEIKR",1.46
7,"10F4-1A1 scFv (scFv, V domains shown, phage clone supernatant) VH: EVQLVESGGGLVQPGGSLRLSCAASGFSFDNYDMSWVRQAPGKGLEWVSSIKPGSAYKFYADSVKGRFTISRDNSKNTLYLQMNSLRAEDTAVYYCAREYSDVVDYVSVRTPLDYWGQGTLVTVSS VL: DIQMTQSPSSLSASVGDRVTITCRASQGISSYLAWYQQKPGKAPKLLIYAASSLQSGVPSRFSGSGSGTDFTLTISSLQPEDFATYYCQQHYTTPPTFGQGTKVEIKR",1.69
8,"1G8-2H11 scFv (scFv, V domains shown, phage clone supernatant) VH: EVQLVESGGGLVQPGGSLRLSCAASGFNFDNYAMSWVRQAPGKGLEWVSRIYGWDWYASYADSVKGRFTISRDNSKNTLYLQMNSLRAEDTAVYYCARQTEDRSYGYDLDYWGQGTLVTVSS VL: DIQMTQSPSSLSASVGDRVTITCRASQGISSYLAWYQQKPGKAPKLLIYAASSLQSGVPSRFSGSGSGTDFTLTISSLQPEDFATYYCQQHYTTPPTFGQGTKVEIKR",1.35
9,"10F4-1C4 scFv (scFv, V domains shown, phage clone supernatant) VH: EVQLVESGGGLVQPGGSLRLSCAASGFNFTDYWMSWVRQAPGKGLEWVSSIIGDDSTNHYADSVKGRFTISRDNSKNTLYLQMNSLRAEDTAVYYCAREYSDVVDYVSVRTPLDYWGQGTLVTVSS VL: DIQMTQSPSSLSASVGDRVTITCRASQGISSYLAWYQQKPGKAPKLLIYAASSLQSGVPSRFSGSGSGTDFTLTISSLQPEDFATYYCQQHYTTPPTFGQGTKVEIKR",1.46
10,"10F4-1B5 scFv (scFv, V domains shown, phage clone supernatant) VH: EVQLVESGGGLVQPGGSLRLSCAASGFNFTDYWMSWVRQAPGKGLEWVSSIIGDDSTNHYADSVKGRFTISRDNSKNTLYLQMNSLRAEDTAVYYCAREYSDVVDYVSVRTPLDYWGQGTLVTVSS VL: DIQMTQSPSSLSASVGDRVTITCRASQGISSYLAWYQQKPGKAPKLLIYAASSLQSGVPSRFSGSGSGTDFTLTISSLQPEDFATYYCQQHYTTPPTFGQGTKVEIKR",1.53
11,"1G8-2H9 scFv (scFv, V domains shown, phage clone supernatant) VH: EVQLVESGGGLVQPGGSLRLSCAASGFNFGNYAMSWVRQAPGKGLEWVSAIYSYFDEPRYADSVKGRFTISRDNSKNTLYLQMNSLRAEDTAVYYCARQTEDRSYGYDLDYWGQGTLVTVSS VL: DIQMTQSPSSLSASVGDRVTITCRASQGISSYLAWYQQKPGKAPKLLIYAASSLQSGVPSRFSGSGSGTDFTLTISSLQPEDFATYYCQQHYTTPPTFGQGTKVEIKR",1.46
12,"10F4-1C3 scFv (scFv, V domains shown, phage clone supernatant) VH: EVQLVESGGGLVQPGGSLRLSCAASGYSFSDYWMSWVRQAPGKGLEWVSSIKQTGGVKHYADSVKGRFTISRDNSKNTLYLQMNSLRAEDTAVYYCAREYSDVVDYVSVRTPLDYWGQGTLVTVSS VL: DIQMTQSPSSLSASVGDRVTITCRASQGISSYLAWYQQKPGKAPKLLIYAASSLQSGVPSRFSGSGSGTDFTLTISSLQPEDFATYYCQQHYTTPPTFGQGTKVEIKR",1.59
13,"10F4-1B7 scFv (scFv, V domains shown, phage clone supernatant) VH: EVQLVESGGGLVQPGGSLRLSCAASGFNFSGFDMSWVRQAPGKGLEWVSGIKAYKSTADYADSVKGRFTISRDNSKNTLYLQMNSLRAEDTAVYYCAREYSDVVDYVSVRTPLDYWGQGTLVTVSS VL: DIQMTQSPSSLSASVGDRVTITCRASQGISSYLAWYQQKPGKAPKLLIYAASSLQSGVPSRFSGSGSGTDFTLTISSLQPEDFATYYCQQHYTTPPTFGQGTKVEIKR",1.6
14,"10F4-1B2 scFv (scFv, V domains shown, phage clone supernatant) VH: EVQLVESGGGLVQPGGSLRLSCAASGFSFGNYWMSWVRQAPGKGLEWVSGIDGHSSYAFYADSVKGRFTISRDNSKNTLYLQMNSLRAEDTAVYYCAREYSDVVDYVSVRTPLDYWGQGTLVTVSS VL: DIQMTQSPSSLSASVGDRVTITCRASQGISSYLAWYQQKPGKAPKLLIYAASSLQSGVPSRFSGSGSGTDFTLTISSLQPEDFATYYCQQHYTTPPTFGQGTKVEIKR",1.64
15,"10F4-1C10 scFv (scFv, V domains shown, phage clone supernatant) VH: EVQLVESGGGLVQPGGSLRLSCAASGYNFGSYDMSWVRQAPGKGLEWVSGIKTYGGNTHYADSVKGRFTISRDNSKNTLYLQMNSLRAEDTAVYYCAREYSDVVDYVSVRTPLDYWGQGTLVTVSS VL: DIQMTQSPSSLSASVGDRVTITCRASQGISSYLAWYQQKPGKAPKLLIYAASSLQSGVPSRFSGSGSGTDFTLTISSLQPEDFATYYCQQHYTTPPTFGQGTKVEIKR",1.52
16,"10F4-1 scFv (scFv, V domains shown, phage clone supernatant) VH: EVQLVESGGGLVQPGGSLRLSCAASGDSFTNYWMSWVRQAPGKGLEWVSGISQGGSYAYYADSVKGRFTISRDNSKNTLYLQMNSLRAEDTAVYYCAREYSDVVDYVSVRTPLDYWGQGTLVTVSS VL: DIQMTQSPSSLSASVGDRVTITCRASQGISSYLAWYQQKPGKAPKLLIYAASSLQSGVPSRFSGSGSGTDFTLTISSLQPEDFATYYCQQHYTTPPTFGQGTKVEIKR",1.39
17,"1G8-2H8 scFv (scFv, V domains shown, phage clone supernatant) VH: EVQLVESGGGLVQPGGSLRLSCAASGDIFGSYAMSWVRQAPGKGLEWVSAISGSGGSTYYADSVKGRFTISRDNSKNTLYLQMNSLRAEDTAVYYCARQTEDRSYGYDLDYWGQGTLVTVSS VL: DIQMTQSPSSLSASVGDRVTITCRASQGISSYLAWYQQKPGKAPKLLIYAASSLQSGVPSRFSGSGSGTDFTLTISSLQPEDFATYYCQQHYTTPPTFGQGTKVEIKR",1.57
18,"1G8-2H10 scFv (scFv, V domains shown, phage clone supernatant) VH: EVQLVESGGGLVQPGGSLRLSCAASGYNFTNSAMSWVRQAPGKGLEWVSSIYYHSGVPRYADSVKGRFTISRDNSKNTLYLQMNSLRAEDTAVYYCARQTEDRSYGYDLDYWGQGTLVTVSS VL: DIQMTQSPSSLSASVGDRVTITCRASQGISSYLAWYQQKPGKAPKLLIYAASSLQSGVPSRFSGSGSGTDFTLTISSLQPEDFATYYCQQHYTTPPTFGQGTKVEIKR",1.53
19,"10F4-1D3 scFv (scFv, V domains shown, phage clone supernatant) VH: EVQLVESGGGLVQPGGSLRLSCAASGFSFYDYDMSWVRQAPGKGLEWVSSIIQSGSTAFYADSVKGRFTISRDNSKNTLYLQMNSLRAEDTAVYYCAREYSDVVDYVSVRTPLDYWGQGTLVTVSS VL: DIQMTQSPSSLSASVGDRVTITCRASQGISSYLAWYQQKPGKAPKLLIYAASSLQSGVPSRFSGSGSGTDFTLTISSLQPEDFATYYCQQHYTTPPTFGQGTKVEIKR",1.52
20,"10F4-1A3 scFv (scFv, V domains shown, phage clone supernatant) VH: EVQLVESGGGLVQPGGSLRLSCAASGYSFSNYDMSWVRQAPGKGLEWVSGIKGWKSYTGYADSVKGRFTISRDNSKNTLYLQMNSLRAEDTAVYYCAREYSDVVDYVSVRTPLDYWGQGTLVTVSS VL: DIQMTQSPSSLSASVGDRVTITCRASQGISSYLAWYQQKPGKAPKLLIYAASSLQSGVPSRFSGSGSGTDFTLTISSLQPEDFATYYCQQHYTTPPTFGQGTKVEIKR",1.53
